Earlier results, collected in paper PMC7911819.

Molecular target: calmodulin (Homo sapiens) (UniProt P0DP23)

## CyaA 1-370 (from UniProt P0DKX7)
  Kd: < 0.1 nM
